Results: patent US20240408238A1

Molecular target: Nme2Cas9 expressed from plasmid in HEK293T cells (human-codon-optimized, NLSs and 3xHA tag) (Neisseria meningitidis strain De11444)
Experiment: cell-based or functional assay

Substance | genome editing in HEK293T cells at varied ratios of Acr plasmid to Cas9 plasmid: ratio giving full inhibition (mass ratio Acr plasmid:Nme2Cas9 plasmid)
AcrIIC4Hpa | 1
AcrIIC1Nme | 2
